Ratio to parent data for four substances are collected here from paper PMC7090148 (2020).

The target in the assay is NTAP-tagged TRAPPC8. Put plainly: co-IP (IP: anti-Myc, immunoblot). The conditions noted are these: 0.5% input, parent: 1.

With “Mouse OFD1, wild type (from UniProt Q80Z25) S437R”, the ratio to parent was 1.02.
For the substance “Mouse OFD1, wild type (from UniProt Q80Z25) G139S”, the ratio to parent was 1.
To “Mouse OFD1, wild type (from UniProt Q80Z25) A80T” belongs 1.04; to “Mouse OFD1, wild type (from UniProt Q80Z25) S75F”, 0.7.
